According to doi:10.1101/2025.10.06.680735, “JMJD1B-mediated FEN1 demethylation allows timely switching of Okazaki fragment maturation core enzymes to avoid mutagenic flap ligation by PARP1-LIG3” (bioRxiv, 2025):
Each block holds one molecule with its values, some of them ahead of it.

B1: DNA ligase 1 (LIG1), in MEFs (enzyme, mouse (endogenous in MEFs), UniProt P37913 1-916, looked up)
chain: MQRSIMSFFQPTKEGKAKKPEKETPSSIREKEPPPKVALKERNQVVPESDSPVKRTGRKVAQVLSCEGEDEDEAPGTPKVQKPVSDSEQSSPPSPDTCPENSPVFNCSSPMDISPSGFPKRRTARKQLPKRTIQDTLEEQNEDKTKTAKKRKKEEETPKESLAEAEDIKQKEEKEGDQLIVPSEPTKSPESVTLTKTENIPVCKAGVKLKPQEEEQSKPPARGAKTLSSFFTPRKPAVKTEVKQEESGTLRKEETKGTLDPANYNPSKNNYHPIEDACWKHGQKVPFLAVARTFEKIEEVSARLKMVETLSNLLRSVVALSPPDLLPVLYLSLNRLGPPQQGLELGVGDGVLLKAVAQATGRQLESIRAEVAEKGDVGLVAENSRSTQRLMLPPPPLTISGVFTKFCDIARLTGSASMAKKMDIIKGLFVACRHSEARYIARSLSGRLRLGLAEQSVLAALAQAVSLTPPGQEFPTVVVDAGKGKTAEARKMWLEEQGMILKQTFCEVPDLDRIIPVLLEHGLERLPEHCKLSPGVPLKPMLAHPTRGVSEVLKRFEEVDFTCEYKYDGQRAQIHVLEGGEVKIFSRNQEDNTGKYPDIISRIPKIKHPSVTSFILDTEAVAWDREKKQIQPFQVLTTRKRKEVDASEIQVQVCLYAFDLIYLNGESLVRQPLSRRRQLLRENFVETEGEFVFTTSLDTKDTEQIAEFLEQSVKDSCEGLMVKTLDVDATYEIAKRSHNWLKLKKDYLDGVGDTLDLVVIGAYLGRGKRAGRYGGFLLAAYDEESEELQAICKLGTGFSDEELEEHHQSLQALVLPTPRPYVRIDGAVAPDHWLDPSIVWEVKCADLSLSPIYPAARGLVDKEKGISLRFPRFIRVRKDKQPEQATTSNQVASLYRKQSQIQNQQSSDLDSDVEDY
notes: DNA ligase 1, mouse, endogenous in MEFs; source: endogenous, mouse embryonic fibroblasts (fixed cells)
B2: POLD1 (the catalytic and PCNA-binding subunit of Polδ), in MEFs (enzyme, mouse (endogenous in MEFs), UniProt P52431 1-1105, looked up)
chain: MDCKRRQGPGPGVPPKRARGHLWDEDEPSPSQFEANLALLEEIEAENRLQEAEEELQLPPEGTVGGQFSTADIDPRWRRPTLRALDPSTEPLIFQQLEIDHYVGSAPPLPEGPLPSRNSVPILRAFGVTDEGFSVCCHIQGFAPYFYTPAPPGFGAEHLSELQQELNAAISRDQRGGKELSGPAVLAIELCSRESMFGYHGHGPSPFLRITLALPRLMAPARRLLEQGVRVPGLGTPSFAPYEANVDFEIRFMVDADIVGCNWLELPAGKYVRRAEKKATLCQLEVDVLWSDVISHPPEGQWQRIAPLRVLSFDIECAGRKGIFPEPERDPVIQICSLGLRWGEPEPFLRLALTLRPCAPILGAKVQSYEREEDLLQAWADFILAMDPDVITGYNIQNFDLPYLISRAQALKVDRFPFLGRVTGLRSNIRDSSFQSRQVGRRDSKVISMVGRVQMDMLQVLLREHKLRSYTLNAVSFHFLGEQKEDVQHSIITDLQNGNEQTRRRLAVYCLKDAFLPLRLLERLMVLVNNVEMARVTGVPLGYLLTRGQQVKVVSQLLRQAMRQGLLMPVVKTEGSEDYTGATVIEPLKGYYDVPIATLDFSSLYPSIMMAHNLCYTTLLRPGAAQKLGLKPDEFIKTPTGDEFVKSSVRKGLLPQILENLLSARKRAKAELAQETDPLRRQVLDGRQLALKVSANSVYGFTGAQVGKLPCLEISQSVTGFGRQMIEKTKQLVESKYTVENGYDANAKVVYGDTDSVMCRFGVSSVAEAMSLGREAANWVSSHFPSPIRLEFEKVYFPYLLISKKRYAGLLFSSRSDAHDKMDCKGLEAVRRDNCPLVANLVTSSLRRILVDRDPDGAVAHAKDVISDLLCNRIDISQLVITKELTRAAADYAGKQAHVELAERMRKRDPGSAPSLGDRVPYVIIGAAKGVAAYMKSEDPLFVLEHSLPIDTQYYLEQQLAKPLLRIFEPILGEGRAESVLLRGDHTRCKTVLTSKVGGLLAFTKRRNCCIGCRSVIDHQGAVCKFCQPRESELYQKEVSHLNALEERFSRLWTQCQRCQGSLHEDVICTSRDCPIFYMRKKVRKDLEDQERLLQRFGPPGPEAW
notes: POLD1, catalytic subunit of DNA polymerase delta, mouse, endogenous in MEFs; source: endogenous, mouse embryonic fibroblasts (fixed cells)

How the values were obtained:
[1] = biological target: DNA ligase 1 (LIG1), in MEFs (mouse (endogenous in MEFs)) (UniProt P37913); test: proximity ligation; Duolink PLA on endogenous proteins in fixed FEN1 R192Q MEFs; foci per nucleus
[2] = biological target: proliferating cell nuclear antigen (PCNA), in MEFs (mouse (endogenous in MEFs)) (UniProt P17918); test: as above
proliferating cell nuclear antigen (PCNA), in MEFs (mouse (endogenous in MEFs)), sequence (P17918 whole entry): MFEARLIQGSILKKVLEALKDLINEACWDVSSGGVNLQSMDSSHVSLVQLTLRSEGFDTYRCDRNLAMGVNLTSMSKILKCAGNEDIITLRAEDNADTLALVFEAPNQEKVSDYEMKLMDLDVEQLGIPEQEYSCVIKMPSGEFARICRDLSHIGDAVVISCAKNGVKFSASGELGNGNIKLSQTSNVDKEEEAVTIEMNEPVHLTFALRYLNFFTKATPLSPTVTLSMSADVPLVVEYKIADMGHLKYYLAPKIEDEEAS

[3] = biological target: DNA ligase 1 (LIG1), in MEFs (mouse (endogenous in MEFs)) (UniProt P37913); test: FRET or BRET; FRET microscopy in fixed FEN1 R192Q MEFs; Alexa Fluor 568 (donor) and Alexa Fluor 647 (acceptor) secondary antibodies; corrected FRET intensity at PCNA foci
[4] = biological target: DNA ligase 1 (LIG1), in MEFs (mouse (endogenous in MEFs)) (UniProt P37913); test: FRET or BRET; FRET microscopy in fixed Jmjd1b-/- MEFs; Alexa Fluor 568 (donor) and Alexa Fluor 647 (acceptor) secondary antibodies; corrected FRET intensity at PCNA foci
[5] = biological target: DNA ligase 1 (LIG1), in MEFs (mouse (endogenous in MEFs)) (UniProt P37913); test: FRET or BRET; FRET microscopy in fixed WT MEFs; primary antibodies with Alexa Fluor 568 (donor) and Alexa Fluor 647 (acceptor) secondary antibodies; corrected FRET intensity at PCNA foci
[6] = biological target: DNA ligase 1 (LIG1), in MEFs (mouse (endogenous in MEFs)) (UniProt P37913); test: proximity ligation; Duolink PLA on endogenous proteins in fixed WT MEFs; foci per nucleus
[7] = biological target: proliferating cell nuclear antigen (PCNA), in MEFs (mouse (endogenous in MEFs)) (UniProt P17918); test: as above
[8] = biological target: proliferating cell nuclear antigen (PCNA), in MEFs (mouse (endogenous in MEFs)) (UniProt P17918); test: proximity ligation; Duolink PLA on endogenous proteins in fixed Jmjd1b-/- MEFs; foci per nucleus
[9] = biological target: T1, proliferating cell nuclear antigen (PCNA), in MEFs (mouse (endogenous in MEFs), UniProt P17918 1-261); test: proximity ligation; Duolink PLA on endogenous proteins in fixed WT MEFs; foci per nucleus; conditions: partners not purified
T1 construct: PCNA, mouse, endogenous in MEFs; source: endogenous, mouse embryonic fibroblasts (fixed cells)
T1 sequence (P17918 whole entry): as above

[10] = biological target: B1; test: as above; conditions: partners not purified
[11] = biological target: Flap endonuclease 1 (FEN1), in MEFs (mouse (endogenous in MEFs)) (UniProt P39749); test: FRET or BRET; FRET microscopy in fixed WT MEFs; primary antibodies with Alexa Fluor 568 (donor) and Alexa Fluor 647 (acceptor) secondary antibodies; corrected FRET intensity at PCNA foci
Flap endonuclease 1 (FEN1), in MEFs (mouse (endogenous in MEFs)), sequence (P39749 whole entry): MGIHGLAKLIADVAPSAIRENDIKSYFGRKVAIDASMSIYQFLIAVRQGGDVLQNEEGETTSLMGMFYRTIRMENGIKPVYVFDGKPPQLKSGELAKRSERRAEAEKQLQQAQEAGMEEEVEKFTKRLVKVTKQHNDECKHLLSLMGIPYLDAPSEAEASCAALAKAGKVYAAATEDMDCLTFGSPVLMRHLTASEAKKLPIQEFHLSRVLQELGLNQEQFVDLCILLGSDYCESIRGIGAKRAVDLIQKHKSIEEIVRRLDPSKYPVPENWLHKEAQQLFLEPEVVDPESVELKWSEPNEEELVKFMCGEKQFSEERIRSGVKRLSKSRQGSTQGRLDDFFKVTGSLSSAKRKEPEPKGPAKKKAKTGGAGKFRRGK

[12] = biological target: Flap endonuclease 1 (FEN1), in MEFs (mouse (endogenous in MEFs)) (UniProt P39749); test: proximity ligation; Duolink PLA on endogenous proteins in fixed WT MEFs; foci per nucleus

PLA foci per nucleus [1]: 9.8 foci/nucleus
PLA foci per nucleus [2]: 31.7 foci/nucleus
FEN1-LIG1 FRET level at PCNA foci, throughout S phase [3]: 2
Molecule: FEN1 R192Q, in FEN1 R192Q MEFs (from UniProt P39749 1-378) (enzyme)

FEN1-LIG1 FRET signal at PCNA foci, early middle S phase [4]: 4.8
FEN1-LIG1 FRET signal at PCNA foci, late S phase [4]: 7.4
FEN1-LIG1 FRET level at PCNA foci, throughout S phase [5]: 5.8
FEN1-LIG1 FRET signal at PCNA foci, early middle S phase [5]: 5.6
FEN1-LIG1 FRET signal at PCNA foci, late S phase [5]: 6.3
FRET signal (corrected FRET intensity at PCNA foci) [5]: 18.6
PLA foci per MEF (PLA foci per MEF) [6]: 20
PLA foci per nucleus [6]: 18.8 foci/nucleus
PLA foci per MEF (PLA foci per MEF) [7]: 40
PLA foci per nucleus [7]: 70.3 foci/nucleus
PLA foci per nucleus [8]: 76.2 foci/nucleus
Molecule: Flap endonuclease 1 (FEN1), in MEFs (from UniProt P39749 1-378) (enzyme)

Molecule: B1
PLA foci per MEF [9]: ~40 PLA foci per MEF

Molecule: B2
PLA foci per MEF [9]: ~40 PLA foci per MEF
PLA foci per MEF [10]: < 5 PLA foci per MEF
FRET signal (corrected FRET intensity at PCNA foci) [11]: 20.1
PLA foci per MEF (PLA foci per MEF) [12]: 20
